Experimental data: paper PMC6396024, “Artemin and an Artemin-Derived Peptide, Artefin, Induce Neuronal Survival, and Differentiation Through Ret and NCAM” (Frontiers in Molecular Neuroscience, 2019)
Bridge positions count the residues as written; N and C are the ends. Ends that are not written are not given here. I, II: the chains in the order shown.

T1: recombinant human GFRα3/Fc (human, UniProt O60609 32-374)
T1 construct: GDNF family receptor alpha-3 (GFRα3), human; Commercial Fc chimera; also called GFL receptor α3; source: bought: R&D Systems
T1 sequence (looked up): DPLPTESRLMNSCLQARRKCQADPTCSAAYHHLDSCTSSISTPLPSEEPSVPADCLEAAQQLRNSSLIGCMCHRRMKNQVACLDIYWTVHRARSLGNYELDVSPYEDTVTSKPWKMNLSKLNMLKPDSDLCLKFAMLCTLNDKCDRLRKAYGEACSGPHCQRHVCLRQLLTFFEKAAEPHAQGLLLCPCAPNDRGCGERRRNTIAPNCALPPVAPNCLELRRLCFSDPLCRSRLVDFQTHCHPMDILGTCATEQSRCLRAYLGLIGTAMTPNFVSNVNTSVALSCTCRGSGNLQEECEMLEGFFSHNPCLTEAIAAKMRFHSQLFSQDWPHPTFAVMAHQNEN

B1: recombinant human Artemin (ARTN) (ligand, UniProt Q5T4W7 108-220, looked up)
chain: AGGPGSRARAAGARGCRLRSQLVPVRALGLGHRSDELVRFRFCSGSCRRARSPHDLSLASLLGAGALRPPPGSRPVSQPCCRPTRYEAVSFMDVNSTWRTVDRLSATACGCLG
notes: Artemin (ARTN), human, UniProt D3DPX9; source: bought: R&D Systems

Columns and labels:
[1] = Circular dichroism spectroscopy; format: physicochemical; conditions: 10 μM, 10 mM NaH2PO4 pH 7.0, room temperature, tetrameric peptide
Protocol: Circular dichroism (CD) spectra were measured over the range 190–250 nm using a Jasco J-810 spectropolarimeter in cells with path length 1 mm at room temperature. The peptide was dissolved in 10 mM NaH2PO4 buffer, pH 7.0, to the final concentration 10 μM. Data were recorded at a scan speed of 20 nm/min with 10 repeat scans accumulated to obtain the final average spectra. Following the buffer subtraction, the observed ellipticity θ (mdeg) was converted to mean residue ellipticity [θ] (deg cm^2/dmol) using the following relationship [θ] = 100θ /(lcn) where ‘l’ is path length in centimeters, ‘c’ is the millimolar concentration, and ‘n’ is the number of residues in the peptide.

[2] = test system: GFRα2; design: method as in Scott and Ibañéz, 2001; conditions: previously shown; ref Scott and Ibañéz, 2001; cited from earlier work
[3] = test system: patients with lumbosacral radiculopathy; conditions: intravenous, Phase 2; particularly at the lowest dose; ref Backonja et al., 2017; cited from earlier work
Text: (§1) Results from Phase 1 clinical trials ([Rolan et al., 2015]; [Okkerse et al., 2016]) further support the application of ARTN for treatment of peripheral nerve injury and attenuation of neuropathic pain. A recent Phase 2 trial (SPRINT) that evaluated the sa ...

[4] = test system: surgically and chemically induced nerve injury models; conditions: systemic treatment; ref Gardell et al., 2003; Bennett et al., 2006; Wang et al., 2008; Wong et al., 2015; cited from earlier work
Text: as §1

[5] = biological target: T1, recombinant human GFRα3/Fc; assay: SPR; Biacore 2000, 25°C, HBS-EP (10 mM HEPES pH 7.4, 150 mM NaCl, 3 mM EDTA, 0.005% P20); ARTN (~2300 RU) or artefin (~1600 RU) amine-coupled on a CM4 chip; serially diluted GFRα3/Fc or NCAM Ig1–3 injected at 20 μl/min; 1:1 interaction model or steady-state affinity analysis; conditions: both partners purified

Molecule	far-UV CD bands ([1]; 190–250 nm)	secondary structure in solution (far-UV CD) [1]	interaction with GFRα2 [2]	reducing pain in patients with lumbosacral radiculopathy [3]	effect on behavioral symptoms of neuropathic pain [4]	Kd [5]
I: RSPHDLSLASLLGAGKK-NH2 / II: RSPHDLSLASLLGAGK / III: RSPHDLSLASLLGAG / IV: RSPHDLSLASLLGAG (amide I:16-IV:C, I:17-II:C, II:16-III:C; C-terminus assumed) [artefin]	negative band at 208 nm, a shoulder at 222 nm, and a positive band at 193 nm	a-helix confirmation is dominant				
B1			previously been shown to interact with GFRα1and GFRα2	showed evidence of pain relief	mitigates behavioral symptoms associated with neuropathic pain	2.7 nM
